Among the data in US7078038 are Percentage of fusion foci and average fluorescence intensity values, retold here.

Test [1] concerns the target CD4 receptor on the cell surface (UniProt P01730). Briefly: cell-based or functional assay.
Test [2] addresses W338S gp120 fixed to CEM cells CD4+/CXCR4+ (HIV-1 (HXB2 clone of HIV-IIIB)) (UniProt P04578). Briefly: flow cytometry, antibody at 10 µg/ml on gp120 fixed to CEM cells CD4+/CXCR4+. (In flow cytometry, cells or beads pass a laser one at a time.)
Test [3] has as its target wild gp120 fixed to CEM cells CD4+/CXCR4+ (HIV-1 (HXB2 clone of HIV-IIIB)) (UniProt P04578). Described as above.
Test [4] deals with CXCR4 receptor on the cell surface (UniProt P61073). The experiment in a line: cell-based or functional assay.

Substance “112W/S gp120 expressed on the surface of transfected HeLa-Tat cells (gp160 envelope with 112 W/S) (from UniProt P04578 33-856)” had a Percentage of fusion foci in test [1] of 0%.

Take AcM 4.8d (antibody): the average fluorescence intensity is 209 in test [2] and 76.8 in test [3].

For AcM 17b (antibody), the values for the average fluorescence intensity in test [2] and in test [3] were 176 and 70.5, respectively.

In test [1], “gp160 envelope with 112 W/F in gp120, expressed on transfected HeLa-Tat cells (from UniProt P04578 33-856)” yielded a Percentage of fusion foci of 60%.

Consider “gp160 envelope with 338 W/S in gp120, expressed on transfected HeLa-Tat cells (from UniProt P04578 33-856)”, for which, in test [4], the Percentage of fusion foci was 0%.
